Measured values from patent US10597674B2, “HPPD variants and methods of use” (BASF Agricultural Solutions Seed, US LLC, priority 2015, dated 2020).
Positions count from the first letter of the chain named. Where two headings read alike, the source gives them in different places.

B1: 16 (protein)
chain: MADLYENPMGLMGFEFIEFASPTPGTLEPIFEIMGFTKVATHRSKNVHLYRQGEINLILNNEPNSIASYFAAEHGPSVCGMAFRVKDSQKAYNRALELGAQPIHIDTGPMELNLPAIKGIGGAPLYLIDRFGEGSSIYDIDFVYLEGVERNPVGAGLKVIDHLTHNVYRGRMVYWANFYEKLFNFREARYFDIKGEYTGLTSKAMSAPDGMIRIPLNEESSKGAGQIEEFLMQFNGEGIQHVAFLTDDLVKTWDALKKIGMRFMTAPSDSYYEMLEGRLPDHGEPVDQLQARGILLDGSSVEGDKRLLLQIFSETLMGPVFFEFIQRKGDDGFGPDSFKVLFESKERDQVRRGVLTAD
modifications: mutant HPPD polypeptide
B2: 8 (protein)
chain: B1 chain with S268P, S270T, K345I
modifications: mutant HPPD polypeptide
B3: 31 (protein)
chain: B1 chain with S268G, S270E, D336H, K345V
modifications: mutant HPPD polypeptide
B4: 60 (protein)
chain: B1 chain with M264R, S268G, S270E, D330H, S344Q, K345V
modifications: mutant HPPD polypeptide
B5: 18 (protein)
chain: B1 chain with M264R, S268P, S270T, D330H, K345I
modifications: mutant HPPD polypeptide
B6: 17 (protein)
chain: B1 chain with S268G, S270E, K345V
modifications: mutant HPPD polypeptide
B7: 33 (protein)
chain: B1 chain with S268G, S270E, V340R, K345V
modifications: mutant HPPD polypeptide

System: HPPD polypeptides (wild-type SEQ ID NO:1 and mutants)
Description: For the generation of crude HPPD polypeptide extract in micro titer plates (MTP) for the determination of residual activity in inhibition assays, cells were grown in 40 or 150 μl LB medium containing 1% Glucose (Merck, Darmstadt, Germany) and 100 μg/ml ampicillin in a standard 96 well plate (Thermo Fisher Scientific, Waltham, USA) incubated for about 18 h in a humidity incubator at 37° C.
30 μl of this starter culture were added to 600 μl LB medium containing 100 μg/ml ampicillin and 150 mM Hepes (Merck, Darmstadt, Germany) as inoculum for the expression culture in 96 well plates (2 ml deep wells; HJ Bioanalytik, Erkelenz, Germany) The plates were sealed by an aluminium foil, and cells were incubated for 5 h at 37° C. on a plate shaker at 750 rpm. The expression was induced by addition of IPTG in a final concentration of 1 mM followed by further sealed incubation for about 18 h at 30° C. on a plate shaker at 750 rpm.
Cells were harvested by centrifugation at 4° C., 2500 g for 15 min discarding the supernatant. Cell pellets were stored at −80° C. and lysed in 250 μl 1× BugBuster® (Merck, Darmstadt, Germany) in 140 mM Tris (pH 7.8), with 1:25000 diluted BNase® (Qiagen, Hilden, Germany) by incubation of the resuspended cells for 30 min at 4° C. and 1000 rpm. Lysates were clarified by centrifugation for 15 min at 4° C., 2500 g, and 150 μl supernatant were transferred in standard 96 well plate (Thermo Fisher Scientific, Waltham, USA) for subsequent testing in quadruplets.
The activity of HPPD polypeptides was determined in absence or presence of HPPD inhibitors using the coupled HPPD activity assay (FIG. 1).
For the determination of the residual activity, the apparent kinetic constant (kapp) of the determined substrate conversion was measured as kinetic changes in absorbance at 320 nm in a coupled assay, in that homogentisate (HGA) formed by HPPD from HPP is directly converted into the well absorbing molecule maleylacetoacetate (MAA) by a second enzyme homogentisate dioxygenase (HGD), applied in excess uniformly in all assays (see FIG. 1). The measurements were performed in 384 micro titer plates (Greiner Bio-One GmbH, Frickenhausen, Germany) by plate readers (Tecan infinite M1000 or M1000PRO, Tecan, Männedorf, Switzerland). The kcat/kM ratio of an enzymatic activity is proportional to the apparent kinetic constant kapp and is proportional to kcat/kM*[E] ([E]=enzyme concentration). […] As both kapp measurements in the presence and absence of inhibitor were performed by use of the identical enzyme sample, crude or purified, and thereby at the same enzyme concentration, the enzyme concentration eliminates from the calculation of residual activity and the ratio of both kapp directly indicates the change of kM due to the inhibition.

[1] = in the presence of Cmpd. 1, 15 μM inhibitor, high substrate concentration, kapp normalized to kapp without inhibitor
[2] = in the presence of Cmpd. 1, 15 μM inhibitor, high substrate concentration, total change in signal normalized to no inhibitor
[3] = in the presence of Cmpd. 2, 15 μM inhibitor, high substrate concentration, kapp normalized to kapp without inhibitor
[4] = in the presence of Cmpd. 2, 15 μM inhibitor, high substrate concentration, total change in signal normalized to no inhibitor
[5] = in the presence of diketonitrile (DKN), 60 μM inhibitor, high substrate concentration, kapp normalized to kapp without inhibitor
[6] = in the presence of diketonitrile (DKN), 60 μM inhibitor, high substrate concentration, total change in signal normalized to no inhibitor
[7] = in the presence of mesotrione (MST), 60 μM inhibitor, high substrate concentration, kapp normalized to kapp without inhibitor
[8] = in the presence of mesotrione (MST), 60 μM inhibitor, high substrate concentration, total change in signal normalized to no inhibitor
[9] = kapp in presence of 50 μM Cmpd. 1, normalised to kapp without inhibitor, low substrate concentration
[10] = total change in signal in presence of 50 μM Cmpd. 1, normalised to that without inhibitor, low substrate concentration

Molecule	Residual activity [1] [%]	Residual turnover [2] [%]	Residual activity [3]	Residual turnover [4]	Residual activity [5]	Residual turnover [6]	Residual activity [7] [%]	Residual turnover [8]	Residual activity [9] [%]	Residual turnover [10] [%]
CS(=O)(=O)c1ccc(C(=O)C2C(=O)CCCC2=O)c([N+](=O)[O-])c1 [mesotrione, 2-[4-(methylsulfonyl)-2-nitrobenzoyl]-1,3-cyclohexanedione, reference compound]	9	9	16%	22%	17%	17%	13	17%		
B1	45	69	94%	94%	n.i. (no inhibition was observed under the given conditions)	n.i.	88	92%		
B2	21	44	67%	74%	91%	95%	70	85%		
B3	40	67	95%	n.i.	n.i. (no inhibition was observed under the given conditions)	n.i.	83	n.i.	50	81
B4									64	84
B5	67	79	n.i. (no inhibition was observed under the given conditions)	n.i.	n.i. (no inhibition was observed under the given conditions)	n.i.				
B6	43	68	90%	90%	n.i. (no inhibition was observed under the given conditions)	95%	85	90%	29	54
B7									40	65
